Measured values taken from article PMC5358979.

Legend:
[1] = test system: FEN1 WT (Homo sapiens); experiment: smFRET; conditions: smFRET reaction buffer with CaCl2 (binding) or MgCl2 (cleavage), SPR in same buffer with CaCl2, no oxygen scavenger, salt, pH and temperature not given in the …; for Kd: Ca2+, Kd-bending
[2] = test system: FEN1 WT (Homo sapiens); experiment: smFRET dwell-time kinetics; conditions: smFRET reaction buffer with CaCl2 (binding) or MgCl2 (cleavage); SPR in same buffer with CaCl2, no oxygen scavenger; salt, pH and temperature not given in the …

| Substance | Kd [2] [nM] | Kd [1] [nM] | other results |
| --- | --- | --- | --- |
| DF-7,1mismatch(1nt) |  |  | binding signal (fold Kd-bending increase vs DF-6,1) [1]: 7 |
| SF-6,0Flap | 166 |  |  |
| EQ DF-6,1Flap | 3.2 |  |  |
| NonEQ DF-6,1dsDNA |  | 4.6 |  |
| NonEQ DF-6,1Flap |  | 3.9 |  |
